Test results taken from US20210069341A1 (published 2021).

Assays:
[1] = target: human FcγRIIIa, 158V allele (human, UniProt P08637 17-208); experiment: binding affinity
[2] = target: T1, human FcγRIIb (human, UniProt P31994 46-217); experiment: binding affinity
T1 chain: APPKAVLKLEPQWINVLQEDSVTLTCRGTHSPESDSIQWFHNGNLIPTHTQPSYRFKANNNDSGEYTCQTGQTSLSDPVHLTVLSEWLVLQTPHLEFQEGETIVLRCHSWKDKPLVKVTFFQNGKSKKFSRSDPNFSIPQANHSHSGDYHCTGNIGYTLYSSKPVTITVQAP

[3] = target: T2, human FcγRI (human, UniProt P12314 16-288); experiment: binding affinity
T2 chain: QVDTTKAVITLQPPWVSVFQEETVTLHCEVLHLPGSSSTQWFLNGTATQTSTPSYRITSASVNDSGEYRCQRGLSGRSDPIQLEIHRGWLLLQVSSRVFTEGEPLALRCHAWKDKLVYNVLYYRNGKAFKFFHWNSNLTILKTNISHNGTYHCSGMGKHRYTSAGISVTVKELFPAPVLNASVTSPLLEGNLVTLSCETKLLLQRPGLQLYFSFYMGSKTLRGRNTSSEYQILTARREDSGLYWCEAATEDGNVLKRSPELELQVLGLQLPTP

[4] = target: human FcγRIIIa, 158F allele (human, UniProt P08637 17-208); experiment: binding affinity
[5] = target: T3, human FcγRIIa (human, UniProt P12318 36-218); experiment: binding affinity
T3 chain: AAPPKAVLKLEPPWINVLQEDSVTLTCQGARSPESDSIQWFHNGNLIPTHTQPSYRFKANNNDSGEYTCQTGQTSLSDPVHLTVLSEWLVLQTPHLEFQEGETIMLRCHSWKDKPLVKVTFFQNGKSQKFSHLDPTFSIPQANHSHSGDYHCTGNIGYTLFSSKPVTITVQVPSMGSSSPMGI

[6] = target: human FcRn protein (human, UniProt P55899 24-297; P61769 21-119); experiment: binding affinity; pH 6
Chain of human FcRn protein (P55899 24-297, chain 1 of 2): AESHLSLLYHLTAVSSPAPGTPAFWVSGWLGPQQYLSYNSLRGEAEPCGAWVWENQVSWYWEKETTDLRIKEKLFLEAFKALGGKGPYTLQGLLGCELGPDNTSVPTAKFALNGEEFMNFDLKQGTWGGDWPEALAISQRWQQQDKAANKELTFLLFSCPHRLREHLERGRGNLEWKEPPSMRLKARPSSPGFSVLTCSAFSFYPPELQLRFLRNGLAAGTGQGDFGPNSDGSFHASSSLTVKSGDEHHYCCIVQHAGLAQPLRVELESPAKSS
Chain of human FcRn protein (P61769 21-119, chain 2 of 2): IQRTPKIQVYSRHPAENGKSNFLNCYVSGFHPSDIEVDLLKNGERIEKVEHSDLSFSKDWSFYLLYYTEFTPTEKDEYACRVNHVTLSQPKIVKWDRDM

Chain of human FcγRIIIa, 158F allele (P08637 17-208): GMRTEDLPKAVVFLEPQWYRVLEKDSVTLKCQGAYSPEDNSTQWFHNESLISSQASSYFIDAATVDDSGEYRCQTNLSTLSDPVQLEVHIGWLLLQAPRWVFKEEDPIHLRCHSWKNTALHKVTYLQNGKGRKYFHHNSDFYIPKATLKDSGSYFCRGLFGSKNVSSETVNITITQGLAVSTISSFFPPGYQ
Chain of human FcγRIIIa, 158V allele (P08637 17-208 F176V): as the sequence (P08637 17-208) above, with F160V counted along it

B1: antibody with the L234F/S239A/S442C triple mutation (Fc receptor affinity analysis) (antibody)
Fc: APEFLGGPAVFLFPPKPKDTLMISRTPEVTCVVVDVSHEDPEVKFNWYVDGVEVHNAKTKPREEQYNSTYRVVSVLTVLHQDWLNGKEYKCKVSNKALPAPIEKTISKAKGQPREPQVYTLPPSRDELTKNQVSLTCLVKGFYPSDIAVEWESNGQPENNYKTTPPVLDSDGSFFLYSKLTVDKSRWQQGNVFSCSVMHEALHNHYTQKSLCLSPGK
[1]
  Kd: 1.46 µM
[2]
  Kd: 6.31 µM
[3]
  Kd: ~0.016 µM
[4]
  Kd: 5.7 µM
[5]
  Kd: 2.54 µM
[6]
  Kd: 0.976 µM

B2: antibody with the C239ins cysteine engineered Fc region (Fc receptor affinity analysis) (antibody)
Fc: APELLGGPSCVFLFPPKPKDTLMISRTPEVTCVVVDVSHEDPEVKFNWYVDGVEVHNAKTKPREEQYNSTYRVVSVLTVLHQDWLNGKEYKCKVSNKALPAPIEKTISKAKGQPREPQVYTLPPSRDELTKNQVSLTCLVKGFYPSDIAVEWESNGQPENNYKTTPPVLDSDGSFFLYSKLTVDKSRWQQGNVFSCSVMHEALHNHYTQKSLSLSPGK
[3]
  Kd: ~0.133 µM
[6]
  Kd: 1.05 µM
